Reference: article PMC11628620, “A core network in the SARS-CoV-2 nucleocapsid NTD mediates structural integrity and selective RNA-binding”

How the values were obtained:
[1] = target: T1, SARS-CoV-2 nucleocapsid NTD WT (SARS-CoV-2 (Wuhan-Hu-1), UniProt P0DTC9 44-180); assay: EMSA; conditions: protein: recombinant; tags: His6-Trx cleaved by TEV; one extra N-terminal G; hairpin with 22 nt 3' extension
[2] = target: SARS-CoV-2 nucleocapsid NTD WT (SARS-CoV-2 (Wuhan-Hu-1), UniProt P0DTC9 44-180); assay: MST; conditions: protein: recombinant; tags: His6-Trx cleaved by TEV; one extra N-terminal G; label: 3'-Cy5; hairpin
[3] = target: T1, SARS-CoV-2 nucleocapsid NTD WT; assay: MST; conditions: protein: recombinant; tags: His6-Trx cleaved by TEV; one extra N-terminal G; label: 3'-Cy5; transiently folds as stem-loop

B1: SL4ext (structured_RNA)
RNA: GGUCUGUGUGGCUGUCACUCGGCUGCAUGCUUAGUGCACUCACGCAGUAUAAUUAAUAACUAAUUACUG
B1: binds [1].

In the case of GGGUGUGGCUGUCACUCGGCUGCAUGCUUAGUGCACUCACGCCC (structured_RNA) [SL4 (3'-Cy5)], the Kd [2] is reported as 14.1 ± 2.23 µM.

GGAUAAUUAAUAACUAAUUACU (ssRNA) [Ext (3'-Cy5)] was tested, and the Kd [3] was 334 ± 47 nM.
